According to patent US20170190753A1 (LABORATOIRE FRANCAIS DU FRACTIONNEMENT ET DES …, published 2017):

B1: pCEP4-1NT4-9CT20 (other)
chain: EDCNELPPRRNTEILTGSWSDQTYPEGTQAIYKCRPGYRSLGNVIMVCRKGEWVALNPLRKCQKRPCGHPGDTPFGTFTLTGGNVFEYGVKAVYTCNEGYQLLGEINYRECDTDGWTNDIPICEVVKCLPVTAPENGKIVSSAMEPDREYHFGQAVRFVCNSGYKIEGDEEMHCSDDGFWSKEKPKCVEISCKSPDVINGSPISQKIIYKENERFQYKCNMGYEYSERGDAVCTESGWRPLPSCEEKSGASGCDIPVFMNARTKNDFTWFKLNDTLDYECHDGYESNTGSTTGSIVCGYNGWSDLPICYERECELPKIDVHLVPDRKKDQYKVGEVLKFSCKPGFTIVGPNSVQCYHFGLSPDLPICKEQVQSCGPPPELLNGNVKEKTKEEYGHSEVVEYYCNPRFLMKGPNKIQCVDGEWTTLPVCIVEESTCGDIPELEHGWAQLSSPPYYYGDSVEFNCSESFTMIGHRSITCIHGVWTQLPQCVAIDKLKKCKSSNLIILEEHLKNKKEFDHNSNIRYRCRGKEGWIHTVCINGRWDPEVNCSMAQIQLCPPPPQIPNSHNMTTTLNYRDGEKVSVLCQENYLIQEGEEITCKDGRWQSIPLCVEKIPCSQPPQIEHGTINSSRSSQESYAHGTKLSYTCEGGFRISEENETTCYMGKWSSPPQCEGLPCKSPPEISHGVVAHMSDSYQYGEEVTYKCFEGFGIDGPAIAKCLGEKWSHPPSCIKTDCLSLPSFENAIPMGEKKDVYKAGEQVTYTCATYYKMDGASNVTCINSRWTGRPTCRDTSCVNPPTVQNAYIVSRQMSKYPSGERVRYQCRSPYEMFGDEEVMCLNGNWTEPPQCKDSTGKCGPPPPIDNGDITSFPLSVYAPASSVEYQCQNLYQLEGNKRITCRNGQWSEPPKCLHPCVISREIMENYNIALRWTAKQKLYSRTGESVEFVCKRGYRLSSRSHTLRTTCWDGKLEYPTCAKRGGSGHHHHHH
B2: pCEP4-1NT4-11CT20 (other)
chain: EDCNELPPRRNTEILTGSWSDQTYPEGTQAIYKCRPGYRSLGNVIMVCRKGEWVALNPLRKCQKRPCGHPGDTPFGTFTLTGGNVFEYGVKAVYTCNEGYQLLGEINYRECDTDGWTNDIPICEVVKCLPVTAPENGKIVSSAMEPDREYHFGQAVRFVCNSGYKIEGDEEMHCSDDGFWSKEKPKCVEISCKSPDVINGSPISQKIIYKENERFQYKCNMGYEYSERGDAVCTESGWRPLPSCEEKSGASGCGPPPELLNGNVKEKTKEEYGHSEVVEYYCNPRFLMKGPNKIQCVDGEWTTLPVCIVEESTCGDIPELEHGWAQLSSPPYYYGDSVEFNCSESFTMIGHRSITCIHGVWTQLPQCVAIDKLKKCKSSNLIILEEHLKNKKEFDHNSNIRYRCRGKEGWIHTVCINGRWDPEVNCSMAQIQLCPPPPQIPNSHNMTTTLNYRDGEKVSVLCQENYLIQEGEEITCKDGRWQSIPLCVEKIPCSQPPQIEHGTINSSRSSQESYAHGTKLSYTCEGGFRISEENETTCYMGKWSSPPQCEGLPCKSPPEISHGVVAHMSDSYQYGEEVTYKCFEGFGIDGPAIAKCLGEKWSHPPSCIKTDCLSLPSFENAIPMGEKKDVYKAGEQVTYTCATYYKMDGASNVTCINSRWTGRPTCRDTSCVNPPTVQNAYIVSRQMSKYPSGERVRYQCRSPYEMFGDEEVMCLNGNWTEPPQCKDSTGKCGPPPPIDNGDITSFPLSVYAPASSVEYQCQNLYQLEGNKRITCRNGQWSEPPKCLHPCVISREIMENYNIALRWTAKQKLYSRTGESVEFVCKRGYRLSSRSHTLRTTCWDGKLEYPTCAKRGGSGHHHHHH
B3: pCEP4-1NT4-14CT20 (other)
chain: EDCNELPPRRNTEILTGSWSDQTYPEGTQAIYKCRPGYRSLGNVIMVCRKGEWVALNPLRKCQKRPCGHPGDTPFGTFTLTGGNVFEYGVKAVYTCNEGYQLLGEINYRECDTDGWTNDIPICEVVKCLPVTAPENGKIVSSAMEPDREYHFGQAVRFVCNSGYKIEGDEEMHCSDDGFWSKEKPKCVEISCKSPDVINGSPISQKIIYKENERFQYKCNMGYEYSERGDAVCTESGWRPLPSCEEKSGASGCPPPPQIPNSHNMTTTLNYRDGEKVSVLCQENYLIQEGEEITCKDGRWQSIPLCVEKIPCSQPPQIEHGTINSSRSSQESYAHGTKLSYTCEGGFRISEENETTCYMGKWSSPPQCEGLPCKSPPEISHGVVAHMSDSYQYGEEVTYKCFEGFGIDGPAIAKCLGEKWSHPPSCIKTDCLSLPSFENAIPMGEKKDVYKAGEQVTYTCATYYKMDGASNVTCINSRWTGRPTCRDTSCVNPPTVQNAYIVSRQMSKYPSGERVRYQCRSPYEMFGDEEVMCLNGNWTEPPQCKDSTGKCGPPPPIDNGDITSFPLSVYAPASSVEYQCQNLYQLEGNKRITCRNGQWSEPPKCLHPCVISREIMENYNIALRWTAKQKLYSRTGESVEFVCKRGYRLSSRSHTLRTTCWDGKLEYPTCAKRGGSGHHHHHH
B4: pCEP4-1NT7-16CT20 (other)
chain: EDCNELPPRRNTEILTGSWSDQTYPEGTQAIYKCRPGYRSLGNVIMVCRKGEWVALNPLRKCQKRPCGHPGDTPFGTFTLTGGNVFEYGVKAVYTCNEGYQLLGEINYRECDTDGWTNDIPICEVVKCLPVTAPENGKIVSSAMEPDREYHFGQAVRFVCNSGYKIEGDEEMHCSDDGFWSKEKPKCVEISCKSPDVINGSPISQKIIYKENERFQYKCNMGYEYSERGDAVCTESGWRPLPSCEEKSCDNPYIPNGDYSPLRIKHRTGDEITYQCRNGFYPATRGNTAKCTSTGWIPAPRCTLKPCDYPDIKHGGLYHENMRRPYFPVAVGKYYSYYCDEHFETPSGSYWDHIHCTQDGWSPAVPCLRKCYFPYLENGYNQNYGRKFVQGKSIDVACHPGYALPKAQTTVTCMENGWSPTPRCIRVKTGASGCKSPPEISHGVVAHMSDSYQYGEEVTYKCFEGFGIDGPAIAKCLGEKWSHPPSCIKTDCLSLPSFENAIPMGEKKDVYKAGEQVTYTCATYYKMDGASNVTCINSRWTGRPTCRDTSCVNPPTVQNAYIVSRQMSKYPSGERVRYQCRSPYEMFGDEEVMCLNGNWTEPPQCKDSTGKCGPPPPIDNGDITSFPLSVYAPASSVEYQCQNLYQLEGNKRITCRNGQWSEPPKCLHPCVISREIMENYNIALRWTAKQKLYSRTGESVEFVCKRGYRLSSRSHTLRTTCWDGKLEYPTCAKRGGSGHHHHHH
B5: pCEP4-1NT7-19CT20 (other)
chain: EDCNELPPRRNTEILTGSWSDQTYPEGTQAIYKCRPGYRSLGNVIMVCRKGEWVALNPLRKCQKRPCGHPGDTPFGTFTLTGGNVFEYGVKAVYTCNEGYQLLGEINYRECDTDGWTNDIPICEVVKCLPVTAPENGKIVSSAMEPDREYHFGQAVRFVCNSGYKIEGDEEMHCSDDGFWSKEKPKCVEISCKSPDVINGSPISQKIIYKENERFQYKCNMGYEYSERGDAVCTESGWRPLPSCEEKSCDNPYIPNGDYSPLRIKHRTGDEITYQCRNGFYPATRGNTAKCTSTGWIPAPRCTLKPCDYPDIKHGGLYHENMRRPYFPVAVGKYYSYYCDEHFETPSGSYWDHIHCTQDGWSPAVPCLRKCYFPYLENGYNQNYGRKFVQGKSIDVACHPGYALPKAQTTVTCMENGWSPTPRCIRVKTGASGCGPPPPIDNGDITSFPLSVYAPASSVEYQCQNLYQLEGNKRITCRNGQWSEPPKCLHPCVISREIMENYNIALRWTAKQKLYSRTGESVEFVCKRGYRLSSRSHTLRTTCWDGKLEYPTCAKRGGSGHHHHHH
B6: pCEP4-1NT11-15CT20 (other)
chain: EDCNELPPRRNTEILTGSWSDQTYPEGTQAIYKCRPGYRSLGNVIMVCRKGEWVALNPLRKCQKRPCGHPGDTPFGTFTLTGGNVFEYGVKAVYTCNEGYQLLGEINYRECDTDGWTNDIPICEVVKCLPVTAPENGKIVSSAMEPDREYHFGQAVRFVCNSGYKIEGDEEMHCSDDGFWSKEKPKCVEISCKSPDVINGSPISQKIIYKENERFQYKCNMGYEYSERGDAVCTESGWRPLPSCEEKSCDNPYIPNGDYSPLRIKHRTGDEITYQCRNGFYPATRGNTAKCTSTGWIPAPRCTLKPCDYPDIKHGGLYHENMRRPYFPVAVGKYYSYYCDEHFETPSGSYWDHIHCTQDGWSPAVPCLRKCYFPYLENGYNQNHGRKFVQGKSIDVACHPGYALPKAQTTVTCMENGWSPTPRCIRVKTCSKSSIDIENGFISESQYTYALKEKAKYQCKLGYVTADGETSGSITCGKDGWSAQPTCIKSCDIPVFMNARTKNDFTWFKLNDTLDYECHDGYESNTGSTTGSIVCGYNGWSDLPICYERECELPKIDVHLVPDRKKDQYKVGEVLKFSCKPGFTIVGPNSVQCYHFGLSPDLPICKEQVQSCGPPPELLNGNVKEKTKEEYGHSEVVEYYCNPRFLMKGPNKIQCVDGEWTTLPVCIVEESTGASGCSQPPQIEHGTINSSRSSQESYAHGTKLSYTCEGGFRISEENETTCYMGKWSSPPQCEGLPCKSPPEISHGVVAHMSDSYQYGEEVTYKCFEGFGIDGPAIAKCLGEKWSHPPSCIKTDCLSLPSFENAIPMGEKKDVYKAGEQVTYTCATYYKMDGASNVTCINSRWTGRPTCRDTSCVNPPTVQNAYIVSRQMSKYPSGERVRYQCRSPYEMFGDEEVMCLNGNWTEPPQCKDSTGKCGPPPPIDNGDITSFPLSVYAPASSVEYQCQNLYQLEGNKRITCRNGQWSEPPKCLHPCVISREIMENYNIALRWTAKQKLYSRTGESVEFVCKRGYRLSSRSHTLRTTCWDGKLEYPTCAKRGGSGHHHHHH
B7: pCEP4-1NT10-14CT20 (other)
chain: EDCNELPPRRNTEILTGSWSDQTYPEGTQAIYKCRPGYRSLGNVIMVCRKGEWVALNPLRKCQKRPCGHPGDTPFGTFTLTGGNVFEYGVKAVYTCNEGYQLLGEINYRECDTDGWTNDIPICEVVKCLPVTAPENGKIVSSAMEPDREYHFGQAVRFVCNSGYKIEGDEEMHCSDDGFWSKEKPKCVEISCKSPDVINGSPISQKIIYKENERFQYKCNMGYEYSERGDAVCTESGWRPLPSCEEKSCDNPYIPNGDYSPLRIKHRTGDEITYQCRNGFYPATRGNTAKCTSTGWIPAPRCTLKPCDYPDIKHGGLYHENMRRPYFPVAVGKYYSYYCDEHFETPSGSYWDHIHCTQDGWSPAVPCLRKCYFPYLENGYNQNHGRKFVQGKSIDVACHPGYALPKAQTTVTCMENGWSPTPRCIRVKTCSKSSIDIENGFISESQYTYALKEKAKYQCKLGYVTADGETSGSITCGKDGWSAQPTCIKSCDIPVFMNARTKNDFTWFKLNDTLDYECHDGYESNTGSTTGSIVCGYNGWSDLPICYERECELPKIDVHLVPDRKKDQYKVGEVLKFSCKPGFTIVGPNSVQCYHFGLSPDLPICKEQVQSGASGCPPPPQIPNSHNMTTTLNYRDGEKVSVLCQENYLIQEGEEITCKDGRWQSIPLCVEKIPCSQPPQIEHGTINSSRSSQESYAHGTKLSYTCEGGFRISEENETTCYMGKWSSPPQCEGLPCKSPPEISHGVVAHMSDSYQYGEEVTYKCFEGFGIDGPAIAKCLGEKWSHPPSCIKTDCLSLPSFENAIPMGEKKDVYKAGEQVTYTCATYYKMDGASNVTCINSRWTGRPTCRDTSCVNPPTVQNAYIVSRQMSKYPSGERVRYQCRSPYEMFGDEEVMCLNGNWTEPPQCKDSTGKCGPPPPIDNGDITSFPLSVYAPASSVEYQCQNLYQLEGNKRITCRNGQWSEPPKCLHPCVISREIMENYNIALRWTAKQKLYSRTGESVEFVCKRGYRLSSRSHTLRTTCWDGKLEYPTCAKRGGSGHHHHHH

target: C3 convertase complex (UniProt P01024 23-1663; P00751 260-764); assay: cell-based or functional assay
Wherever C3 convertase activity % of the control is given: test concentration or dose not given here.

C3 convertase complex, sequence (P01024 23-1663, chain 1 of 2): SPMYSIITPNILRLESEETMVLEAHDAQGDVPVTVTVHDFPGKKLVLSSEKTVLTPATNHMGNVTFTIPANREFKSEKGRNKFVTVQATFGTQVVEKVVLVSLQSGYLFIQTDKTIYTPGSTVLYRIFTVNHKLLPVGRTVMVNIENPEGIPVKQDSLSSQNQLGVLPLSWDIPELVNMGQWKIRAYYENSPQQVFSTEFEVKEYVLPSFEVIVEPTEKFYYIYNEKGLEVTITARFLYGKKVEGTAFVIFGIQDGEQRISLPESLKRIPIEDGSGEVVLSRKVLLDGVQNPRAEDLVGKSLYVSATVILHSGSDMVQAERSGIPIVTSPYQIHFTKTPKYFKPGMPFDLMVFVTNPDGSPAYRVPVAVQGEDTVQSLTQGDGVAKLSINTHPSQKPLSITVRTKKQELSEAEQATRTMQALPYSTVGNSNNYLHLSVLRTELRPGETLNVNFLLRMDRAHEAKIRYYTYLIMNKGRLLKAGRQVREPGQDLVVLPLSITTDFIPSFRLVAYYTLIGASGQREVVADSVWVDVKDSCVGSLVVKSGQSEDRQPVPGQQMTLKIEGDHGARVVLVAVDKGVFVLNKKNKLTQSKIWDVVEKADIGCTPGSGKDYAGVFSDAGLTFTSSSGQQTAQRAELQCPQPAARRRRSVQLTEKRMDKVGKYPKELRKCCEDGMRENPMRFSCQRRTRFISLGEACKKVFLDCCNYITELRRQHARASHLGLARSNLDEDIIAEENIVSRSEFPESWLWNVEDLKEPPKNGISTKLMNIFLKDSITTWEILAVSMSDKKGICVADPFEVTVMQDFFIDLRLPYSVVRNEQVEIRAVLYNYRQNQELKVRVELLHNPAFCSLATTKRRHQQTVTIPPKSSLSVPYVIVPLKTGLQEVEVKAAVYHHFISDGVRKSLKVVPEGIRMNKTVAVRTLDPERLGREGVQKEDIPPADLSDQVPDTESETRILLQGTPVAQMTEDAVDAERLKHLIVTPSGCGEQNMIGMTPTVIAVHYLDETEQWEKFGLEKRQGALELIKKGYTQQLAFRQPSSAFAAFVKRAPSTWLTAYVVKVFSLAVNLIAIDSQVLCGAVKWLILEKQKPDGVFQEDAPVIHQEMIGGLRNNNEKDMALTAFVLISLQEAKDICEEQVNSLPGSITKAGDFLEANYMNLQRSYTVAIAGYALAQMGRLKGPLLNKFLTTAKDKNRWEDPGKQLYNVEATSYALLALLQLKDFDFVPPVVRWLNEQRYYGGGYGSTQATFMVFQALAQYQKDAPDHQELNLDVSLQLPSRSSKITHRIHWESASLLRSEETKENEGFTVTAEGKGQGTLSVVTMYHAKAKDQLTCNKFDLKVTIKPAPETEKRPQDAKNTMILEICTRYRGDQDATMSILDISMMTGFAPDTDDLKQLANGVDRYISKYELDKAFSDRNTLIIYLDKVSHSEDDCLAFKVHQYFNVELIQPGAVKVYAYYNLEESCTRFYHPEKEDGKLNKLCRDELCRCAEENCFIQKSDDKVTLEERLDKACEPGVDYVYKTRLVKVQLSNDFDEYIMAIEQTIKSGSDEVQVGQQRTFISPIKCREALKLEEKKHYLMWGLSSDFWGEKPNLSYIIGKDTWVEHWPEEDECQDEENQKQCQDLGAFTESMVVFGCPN
C3 convertase complex, sequence (P00751 260-764, chain 2 of 2): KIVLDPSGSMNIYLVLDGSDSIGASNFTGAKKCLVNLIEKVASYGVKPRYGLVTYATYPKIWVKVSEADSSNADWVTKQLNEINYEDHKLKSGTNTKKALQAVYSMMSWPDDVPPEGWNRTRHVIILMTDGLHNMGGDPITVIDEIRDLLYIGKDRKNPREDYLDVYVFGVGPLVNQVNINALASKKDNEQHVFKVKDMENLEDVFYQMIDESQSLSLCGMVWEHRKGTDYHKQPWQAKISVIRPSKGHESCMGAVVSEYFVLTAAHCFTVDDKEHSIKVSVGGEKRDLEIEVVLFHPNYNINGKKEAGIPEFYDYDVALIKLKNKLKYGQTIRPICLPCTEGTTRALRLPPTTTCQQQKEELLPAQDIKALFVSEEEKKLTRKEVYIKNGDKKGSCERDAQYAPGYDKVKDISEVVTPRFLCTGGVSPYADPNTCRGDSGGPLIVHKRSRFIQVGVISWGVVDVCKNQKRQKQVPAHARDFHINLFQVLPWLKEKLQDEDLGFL

C3 convertase activity % of the control	C3 convertase activity IC50 [µg/mL]	Binder
18 % of the control	0.536	B1
17 % of the control	0.546	B2
15 % of the control	0.618	B3
15 % of the control	0.442	B4
12 % of the control	1.09	B5
10 % of the control	0.74	B6
14 % of the control	0.671	B7
